1 substance from publication PMC11699742 can be followed below.

The test deals with α-Synuclein (UniProt P37840).

DnaK from E. coli, sequence (P0A6Y8 whole entry): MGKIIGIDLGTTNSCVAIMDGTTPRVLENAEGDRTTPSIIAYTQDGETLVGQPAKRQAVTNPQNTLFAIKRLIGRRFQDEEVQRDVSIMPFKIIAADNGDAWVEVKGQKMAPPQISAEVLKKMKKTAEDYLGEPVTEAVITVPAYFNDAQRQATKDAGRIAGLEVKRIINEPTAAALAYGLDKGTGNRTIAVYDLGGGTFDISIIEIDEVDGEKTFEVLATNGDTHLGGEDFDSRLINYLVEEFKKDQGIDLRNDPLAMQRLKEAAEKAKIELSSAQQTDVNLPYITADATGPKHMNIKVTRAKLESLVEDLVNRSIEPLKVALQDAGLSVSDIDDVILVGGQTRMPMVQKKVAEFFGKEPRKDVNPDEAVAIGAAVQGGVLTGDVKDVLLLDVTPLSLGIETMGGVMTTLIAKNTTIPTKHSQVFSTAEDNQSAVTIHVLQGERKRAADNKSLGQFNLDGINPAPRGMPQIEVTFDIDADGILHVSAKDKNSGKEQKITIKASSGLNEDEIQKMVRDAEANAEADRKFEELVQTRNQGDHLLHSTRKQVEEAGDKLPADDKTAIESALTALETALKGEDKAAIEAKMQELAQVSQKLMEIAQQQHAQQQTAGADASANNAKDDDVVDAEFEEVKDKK

In turn, “DnaK from E. coli (from UniProt P0A6Y8 1-638) (natural protein)” registered a ThT fibrillation of 50 µM α-Syn monomer with 0.5 µM DnaK, with 2 mM ATP: relative decrease in vmax (1.32 h^-1 to 0.49 h^-1) and end signal (176,900–53,000) of 64%; a ThT fibrillation of 50 µM α-Syn monomer with 0.5 µM DnaK, without ATP: relative decrease in vmax (0.99 h^-1 to 0.55 h^-1) and end signal (43,000-24,600) of 45%.
